Measurements published in patent US9845340B2, “Peptides that specifically bind HGF receptor (cMet) and uses thereof” (Dyax Corp., priority 2003, dated 2017).

Tests used:
cMet-Fc fusion protein = cMet-Fc fusion protein (Homo sapiens, UniProt P08581); assay: Protein phage ELISA: peptide-displaying phage binding to soluble cMet-Fc versus TRAIL-Fc; conditions: phage isolate; cMet-Fc vs. TRAIL-Fc
Experimental: Protein phage ELISAs using peptide-displaying phage isolates from the various selection campaigns were performed to determine specificity of the peptides for cMet versus an unrelated Fc-fusion protein (TRAIL-Fc). Briefly, 384-well plates were coated overnight at 4 C with 0.5 μg/mL of cMet-Fc fusion protein or TRAIL-Fc fusion protein (background). The plates were blocked for 2 hours 37C with 3% (w/v) BSA in PBS containing 0.05% (v/v) Tween-20 (PBST). The plates were washed with PBST and 100 μL of peptide-displaying phage were added to each well. The plates were incubated for 2 hours at room temperature and washed with PBST. cMet-binding peptide-displaying phage were detected using an HRP-conjugated anti-M13 antibody.

[1] = target: T1, 3T3 cells that over-express human cMet (Homo sapiens, UniProt P08581); assay: Whole cell ELISA of peptide-displaying phage; assay type: cell-based; conditions: phage isolate; 3T3 cells expressing human cMet vs. non-expressing 3T3 cells
T1 construct: expressed in transfected cells; host or cells: 3T3 cells
T1 sequence (P08581 25-1390): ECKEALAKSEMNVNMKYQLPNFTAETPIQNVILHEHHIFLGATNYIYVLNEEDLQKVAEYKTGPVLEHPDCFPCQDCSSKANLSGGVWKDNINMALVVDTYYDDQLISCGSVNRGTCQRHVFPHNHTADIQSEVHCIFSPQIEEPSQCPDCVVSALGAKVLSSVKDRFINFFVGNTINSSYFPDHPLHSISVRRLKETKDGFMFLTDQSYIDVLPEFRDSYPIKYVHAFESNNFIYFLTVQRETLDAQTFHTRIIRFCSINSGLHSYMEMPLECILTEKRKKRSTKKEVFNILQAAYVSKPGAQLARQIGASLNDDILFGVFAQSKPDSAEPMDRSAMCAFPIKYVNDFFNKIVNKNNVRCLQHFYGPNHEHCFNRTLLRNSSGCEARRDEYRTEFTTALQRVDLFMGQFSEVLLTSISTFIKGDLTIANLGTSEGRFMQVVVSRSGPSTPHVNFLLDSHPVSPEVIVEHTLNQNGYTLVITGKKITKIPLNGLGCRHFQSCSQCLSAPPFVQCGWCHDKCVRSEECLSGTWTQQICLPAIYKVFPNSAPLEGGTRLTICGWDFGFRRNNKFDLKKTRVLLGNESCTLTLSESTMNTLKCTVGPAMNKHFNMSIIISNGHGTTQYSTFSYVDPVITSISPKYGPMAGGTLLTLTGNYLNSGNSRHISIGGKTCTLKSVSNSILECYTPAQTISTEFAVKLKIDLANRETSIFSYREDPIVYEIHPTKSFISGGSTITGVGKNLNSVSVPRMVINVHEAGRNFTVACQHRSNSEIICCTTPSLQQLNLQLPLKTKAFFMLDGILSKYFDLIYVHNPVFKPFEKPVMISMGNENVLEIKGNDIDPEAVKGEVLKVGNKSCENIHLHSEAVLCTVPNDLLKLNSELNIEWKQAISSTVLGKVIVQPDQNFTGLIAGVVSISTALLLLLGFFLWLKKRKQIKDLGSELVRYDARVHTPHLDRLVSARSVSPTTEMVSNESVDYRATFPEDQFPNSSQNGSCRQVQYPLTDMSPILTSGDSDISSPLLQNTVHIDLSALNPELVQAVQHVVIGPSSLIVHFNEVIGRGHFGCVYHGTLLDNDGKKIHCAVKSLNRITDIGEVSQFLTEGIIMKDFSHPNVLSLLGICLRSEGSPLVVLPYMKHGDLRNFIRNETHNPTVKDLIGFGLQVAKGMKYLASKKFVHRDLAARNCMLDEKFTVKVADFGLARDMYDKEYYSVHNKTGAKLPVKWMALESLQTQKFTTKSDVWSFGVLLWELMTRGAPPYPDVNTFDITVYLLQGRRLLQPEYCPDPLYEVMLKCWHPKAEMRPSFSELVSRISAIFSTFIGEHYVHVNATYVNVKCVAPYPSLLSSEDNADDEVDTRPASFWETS
Experimental: Whole cell ELISAs were performed using 3T3 cells that over-express human cMet. […] Briefly, 96-well plates were seeded with 10^5 cells per well. The plates were centrifuged for 5 minutes at 1600 rpm to pellet the cells. The resulting cell layer was fixed with 0.1% (v/v) glutaraldehyde for 12 minutes at 37 C. […] Peptide-displaying phage also were blocked in the above solution for 1 hour at 37 C. 100 μL of blocked phage was then added to each well and the plates were incubated for 1 hour at room temperature. The plates were washed with PBST. cMet-binding peptide-displaying phage were detected using an HRP-conjugated anti-M13 antibody.

Chain of cMet-Fc fusion protein (P08581 25-307 limits assumed): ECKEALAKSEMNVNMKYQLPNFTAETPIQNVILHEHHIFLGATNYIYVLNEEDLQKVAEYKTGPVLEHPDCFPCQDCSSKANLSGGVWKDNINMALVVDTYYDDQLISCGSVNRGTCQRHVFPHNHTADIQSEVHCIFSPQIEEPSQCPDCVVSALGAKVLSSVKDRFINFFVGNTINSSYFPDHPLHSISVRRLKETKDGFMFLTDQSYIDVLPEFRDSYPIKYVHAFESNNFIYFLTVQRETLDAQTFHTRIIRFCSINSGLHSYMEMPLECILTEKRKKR
Chain of cMet-Fc fusion protein (P08581 with tags, fused parts or gaps limits assumed): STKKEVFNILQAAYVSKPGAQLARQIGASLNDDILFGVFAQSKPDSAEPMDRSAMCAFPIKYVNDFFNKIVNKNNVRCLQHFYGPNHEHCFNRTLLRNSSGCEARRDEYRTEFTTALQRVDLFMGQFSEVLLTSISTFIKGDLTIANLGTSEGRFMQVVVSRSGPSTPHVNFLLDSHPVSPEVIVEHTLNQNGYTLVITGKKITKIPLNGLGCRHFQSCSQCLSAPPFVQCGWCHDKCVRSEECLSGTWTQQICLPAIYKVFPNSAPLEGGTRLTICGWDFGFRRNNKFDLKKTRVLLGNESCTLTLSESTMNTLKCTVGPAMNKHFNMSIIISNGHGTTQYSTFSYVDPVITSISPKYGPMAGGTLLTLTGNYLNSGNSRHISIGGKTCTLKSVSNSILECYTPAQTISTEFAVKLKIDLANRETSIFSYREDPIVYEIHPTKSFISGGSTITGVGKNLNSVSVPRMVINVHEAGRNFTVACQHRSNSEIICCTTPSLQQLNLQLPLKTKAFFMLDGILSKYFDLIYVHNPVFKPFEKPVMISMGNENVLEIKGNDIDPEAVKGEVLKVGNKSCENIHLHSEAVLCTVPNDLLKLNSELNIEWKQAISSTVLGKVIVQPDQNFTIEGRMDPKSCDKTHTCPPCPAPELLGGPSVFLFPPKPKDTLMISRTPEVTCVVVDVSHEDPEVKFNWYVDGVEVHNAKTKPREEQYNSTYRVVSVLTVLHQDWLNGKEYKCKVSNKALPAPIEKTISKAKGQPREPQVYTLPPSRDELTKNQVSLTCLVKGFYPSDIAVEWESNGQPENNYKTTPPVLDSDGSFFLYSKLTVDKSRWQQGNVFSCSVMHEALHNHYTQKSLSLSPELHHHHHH

| Protein ELISA (cMet-Fc fusion protein) [fold over background] | WC ELISA [1] [fold over background] | Compound |
| --- | --- | --- |
| 3.2 | 1.43 | GSMLGCLFEHQNKYDCYVLAP (Synthetically generated cMet-binding peptide sequence) [SEQ ID NO: 379] |
| 3.8 | 1.20 | AQAYEWWADESIFNHGYYWGHQ (Synthetically generated cMet-binding peptide sequence) [SEQ ID NO: 470] |
| 13.4 | 1.33 | AGNYFCAGSPSFSCYFMGT (Synthetically generated cMet-binding peptide sequence) [SEQ ID NO: 054] |
| 6.2 | 1.30 | GDNRFCSWVYNVDDWWCVDNDP (Synthetically generated cMet-binding peptide sequence) [SEQ ID NO: 398] |
| 13.5 | 1.40 | GDLLGCGYQEKGGEYKCRFNDP (Synthetically generated cMet-binding peptide sequence) [SEQ ID NO: 395] |
| 3.2 | 1.30 | AGQAVCEWGPFWCQMQGT (Synthetically generated cMet-binding peptide sequence) [SEQ ID NO: 031] |
| 3.1 | 1.27 | AGHTICQHKALGCPANGT (Synthetically generated cMet-binding peptide sequence) [SEQ ID NO: 041] |
| 3.2 | 1.33 | AGVIVCNLSMMYCLYPGT (Synthetically generated cMet-binding peptide sequence) [SEQ ID NO: 023] |
| 6.1 | 1.30 | GDYRMCQISDMWGNYECSSDDP (Synthetically generated cMet-binding peptide sequence) [SEQ ID NO: 400] |
| 11.3 | 1.30 | CSCC[C@H](NC(=O)CNC(=O)[C@@H]1CCCN1C(=O)[C@H](CO)NC(=O)[C@H](CO)NC(=O)[C@H](Cc1c[nH]c2ccccc12)NC(=O)[C@H](CCCNC(=N)N)NC(=O)[C@H](CCC(N)=O)NC(=O)[C@H](C)NC(C)=O)C(=O)N[C@@H](CO)C(=O)N[C@@H](CCC(N)=O)C(=O)N[C@@H](CO)C(=O)N[C@@H](Cc1ccccc1)C(=O)N[C@H](C(=O)N[C@@H](CC(C)C)C(=O)N[C@@H](CCC(=O)O)C(=O)N[C@@H](Cc1c[nH]c2ccccc12)C(=O)N[C@@H](CCCCN)C(=O)N[C@@H](Cc1c[nH]c2ccccc12)C(=O)N[C@@H](CC(N)=O)C(=O)N[C@@H](CC(=O)O)C(=O)N[C@@H](CC(N)=O)C(=O)NCC(=O)NCC(=O)NCC(=O)N[C@@H](CCCCNC(=O)c1ccc2c(c1)C(=O)OC21c2ccc(O)cc2Oc2cc(O)ccc21)C(N)=O)C(C)C [SEQ ID NO: 453] |
| 11.1 | 1.23 | GDHLTCEFRDDGWKEHCWWSDP (Synthetically generated cMet-binding peptide sequence) [SEQ ID NO: 403] |
| 18.3 | 1.47 | CC(=O)N[C@@H](C)C(=O)NCC(=O)N[C@@H](CO)C(=O)N[C@@H](Cc1c[nH]c2ccccc12)C(=O)N[C@@H](Cc1c[nH]cn1)C(=O)N[C@H]1CSSC[C@@H](C(=O)N[C@@H](Cc2c[nH]c3ccccc23)C(=O)N[C@@H](CCC(=O)O)C(=O)N[C@@H](Cc2ccccc2)C(=O)NCC(=O)N[C@H](C(=O)NCC(=O)NCC(=O)NCC(=O)N[C@@H](CCCCNC(=O)c2ccc3c(c2)C(=O)OC32c3ccc(O)cc3Oc3cc(O)ccc32)C(N)=O)[C@@H](C)O)NC(=O)[C@H](CCC(=O)O)NC(=O)[C@H](Cc2ccccc2)NC(=O)[C@H](CO)NC(=O)[C@@H]2CCCN2C(=O)[C@@H]2CCCN2C(=O)CNC(=O)[C@H](C)NC1=O [SEQ ID NO: 055] |
| 7.0 | 1.37 | AQNAVVPPPMLWSIYWDYGREG (Synthetically generated cMet-binding peptide sequence) [SEQ ID NO: 457] |
| 4.0 | 1.30 | AGWGWCSGPPMFMCTEYGT (Synthetically generated cMet-binding peptide sequence) [SEQ ID NO: 099] |
| 3.5 | 1.23 | AGMDFCEGFWFLCIGNAT (Synthetically generated cMet-binding peptide sequence) [SEQ ID NO: 035] |
| 5.2 | 1.17 | GDHRKCEISAKTHEVTCYDNDP (Synthetically generated cMet-binding peptide sequence) [SEQ ID NO: 402] |
| 3.0 | 1.37 | AQWNWDMGFMWTTDSAQVQPSM (Synthetically generated cMet-binding peptide sequence) [SEQ ID NO: 489] |
| 4.5 | 1.17 | AQGIAWQLEWSYMPQSPPSFDR (Synthetically generated cMet-binding peptide sequence) [SEQ ID NO: 495] |
| 4.3 | 1.33 | AGLYLCDLSIMYCFFQGT (Synthetically generated cMet-binding peptide sequence) [SEQ ID NO: 015] |
| 3.6 | 1.27 | AGLLGCWDMPMECTGEGT (Synthetically generated cMet-binding peptide sequence) [SEQ ID NO: 036] |
| 8.9 | 1.27 | AGNYWCSGPPSFICHAVGT (Synthetically generated cMet-binding peptide sequence) [SEQ ID NO: 091] |
| 12.6 | 1.47 | CC(=O)N[C@@H](C)C(=O)NCC(=O)N[C@@H](CCC(=O)O)C(=O)N[C@@H](Cc1c[nH]c2ccccc12)C(=O)N[C@@H](Cc1c[nH]c2ccccc12)C(=O)N[C@H]1CSSC[C@@H](C(=O)N[C@@H](Cc2ccc(O)cc2)C(=O)N[C@@H](Cc2c[nH]c3ccccc23)C(=O)N[C@H](C(=O)NCC(=O)N[C@H](C(=O)NCC(=O)NCC(=O)NCC(=O)N[C@@H](CCCCNC(=O)c2ccc3c(c2)C(=O)OC32c3ccc(O)cc3Oc3cc(O)ccc32)C(N)=O)[C@@H](C)O)[C@@H](C)O)NC(=O)[C@H](CC(C)C)NC(=O)[C@H](Cc2ccccc2)NC(=O)[C@H](CCC(=O)O)NC(=O)[C@@H]2CCCN2C(=O)[C@@H]2CCCN2C(=O)CNC(=O)[C@H](Cc2c[nH]cn2)NC1=O [SEQ ID NO: 072] |
| 9.1 | 1.40 | AGYFHCSGSPWFQCDYYGT (Synthetically generated cMet-binding peptide sequence) [SEQ ID NO: 081] |
| 6.2 | 1.27 | AGAFFCSGPPTFMCSLYGT (Synthetically generated cMet-binding peptide sequence) [SEQ ID NO: 098] |
| 4.4 | 1.33 | GSYYDCREFQCNKPAP (Synthetically generated cMet-binding peptide sequence) [SEQ ID NO: 002] |
| 8.0 | 1.33 | AQMYQTPDGVIGKFVDWMFN (Synthetically generated cMet-binding peptide sequence) [SEQ ID NO: 455] |
| 3.7 | 1.37 | AGVWICRVWDDECFFQGT (Synthetically generated cMet-binding peptide sequence) [SEQ ID NO: 020] |
| 7.8 | 1.10 | AGETVCYWLNGWFCVDDGT (Synthetically generated cMet-binding peptide sequence) [SEQ ID NO: 073] |
